Experimental findings from patent publication US20230136228A1 (LAMKAP BIO ALPHA, published 2023) are described below.

Test [1] deals with T1, human CEACAM6 (human, UniProt P40199 35-320).
T1 construct: whole, on cells; also called CD66c
T1 sequence (looked up): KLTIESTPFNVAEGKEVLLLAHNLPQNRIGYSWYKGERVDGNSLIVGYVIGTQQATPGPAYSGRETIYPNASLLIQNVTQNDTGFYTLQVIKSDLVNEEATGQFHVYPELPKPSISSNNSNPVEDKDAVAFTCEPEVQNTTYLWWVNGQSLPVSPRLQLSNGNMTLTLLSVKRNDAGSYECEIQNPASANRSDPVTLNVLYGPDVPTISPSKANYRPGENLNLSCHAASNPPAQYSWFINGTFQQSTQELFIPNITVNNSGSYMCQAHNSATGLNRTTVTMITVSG
The test can be described thus: flow cytometry, transfected PEAK cells. The source says: (§1) Vectors encoding the full-length version of human CEACAM 1, 3, 4, 5, 6, 7, 8, 18, 19, 20 and […] are used to express these proteins at the surface of PEAK and/or CHO cells as described in Example 1. Similarly, vectors encoding the full-length version of cyno CEACAM 5 and 6 are also used to express these proteins at the surface of PEAK and/or CHO cells. Non-transfected PEAK and/or CHO cells are used as negative control. Cells are harvested, counted, checked for viability and resuspended at 3×10⁶ cells/ml in FACS buffer (PBS 2% BSA, 0.1% NaN₃). 100 μl of the cell suspension are distributed in V-bottom 96-well plates (3×10⁵ cells/well). The supernatant is removed by centrifugation 3 minutes at 4° C., 1300 rpm and the cells incubated for 15 minutes at 4° C. with increasing concentrations of the antibody according to the invention. The antibodies carrying the anti-CEACAM5 arms to test are diluted in FACS buffer and the concentration range is 30 pM-500 nM. Cells are washed twice with cold FACS buffer and re-incubated for further 15 minutes at 4° C. with a compatible anti-human IgG secondary antibody. Cells are washed twice with cold FACS buffer and resuspended in 300 μl FACS buffer with 1:1500-diluted TOPRO-3 (Invitrogen). Fluorescence is measured using a FACSCalibur™ (BD Biosciences) or a Cytoflex Platform (Beckman Coulter). Dose-response binding curves are fitted using GraphPad Prism8 software. In the same manner, CEACAM1, CEACAM6 and other CEACAMs can be characterized.
(§2) For the bispecific antibodies AB17L3-1/N, AB71L3-1/N, AB72L3-1/N, AB73L3-1/N the MFI measured for binding to CEACAM5 transfected cells was found between 29000 and 41000 (Table 2). In contrast MFI found by using PEAK cells transfected with CEACAM 1,3,4,6,8 were found below 1000 with the only exception of a strong signal for AB72L3-1/N on CEACAM8 transfected cells. When MFI values obtained on transfected cells expressing any given CEACAM are divided by the values obtained on WT PEAK cells, “factors to PEAK WT” can be calculated (Table 3).

For test [2], the target named is T2, human CEACAM3 (human, UniProt P40198 35-252).
T2 construct: whole, on cells
T2 sequence (looked up): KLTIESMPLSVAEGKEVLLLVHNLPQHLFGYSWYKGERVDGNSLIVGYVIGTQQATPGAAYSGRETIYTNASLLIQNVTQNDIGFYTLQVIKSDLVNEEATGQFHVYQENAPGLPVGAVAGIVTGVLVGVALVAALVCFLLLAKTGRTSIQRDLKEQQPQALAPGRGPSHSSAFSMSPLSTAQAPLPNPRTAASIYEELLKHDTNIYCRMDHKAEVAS
The experiment in a line: flow cytometry, transfected PEAK cells.
Text: as §1, §2
A general note: Flow cytometry measures light scatter and fluorescence of single cells or particles in a stream.

Test [3] addresses T3, human CEACAM4 (human, UniProt O75871 36-244).
T3 construct: whole, on cells
T3 sequence (looked up): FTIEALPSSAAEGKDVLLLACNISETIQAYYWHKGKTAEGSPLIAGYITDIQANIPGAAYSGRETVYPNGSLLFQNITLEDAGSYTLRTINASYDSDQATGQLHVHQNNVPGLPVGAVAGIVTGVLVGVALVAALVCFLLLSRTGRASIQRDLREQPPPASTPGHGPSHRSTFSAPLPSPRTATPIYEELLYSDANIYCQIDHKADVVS
The test can be described thus: flow cytometry, transfected PEAK cells.
Text: as §1, §2

In test [4] the target is T4, human CEACAM1 (human, UniProt P13688 35-526).
T4 construct: whole, on cells
T4 sequence (looked up): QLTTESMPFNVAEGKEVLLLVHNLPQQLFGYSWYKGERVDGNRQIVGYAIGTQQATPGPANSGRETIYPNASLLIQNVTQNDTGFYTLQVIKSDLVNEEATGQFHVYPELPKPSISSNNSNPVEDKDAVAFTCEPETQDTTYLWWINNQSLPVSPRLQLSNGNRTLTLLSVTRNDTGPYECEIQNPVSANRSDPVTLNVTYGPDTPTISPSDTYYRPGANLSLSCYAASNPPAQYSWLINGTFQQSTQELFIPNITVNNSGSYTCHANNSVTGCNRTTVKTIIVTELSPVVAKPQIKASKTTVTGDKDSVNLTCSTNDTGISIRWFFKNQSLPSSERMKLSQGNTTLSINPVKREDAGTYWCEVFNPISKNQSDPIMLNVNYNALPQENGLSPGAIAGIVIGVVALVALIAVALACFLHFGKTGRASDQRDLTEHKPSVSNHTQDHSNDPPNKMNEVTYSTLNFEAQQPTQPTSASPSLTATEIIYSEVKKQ
The experiment in a line: flow cytometry, transfected PEAK cells.
Text: as §1, §2

Test [5] concerns the target T5, shed soluble CEACAM5 (sCEA) (human, UniProt P06731 35-685, limits assumed).
T5 sequence (looked up): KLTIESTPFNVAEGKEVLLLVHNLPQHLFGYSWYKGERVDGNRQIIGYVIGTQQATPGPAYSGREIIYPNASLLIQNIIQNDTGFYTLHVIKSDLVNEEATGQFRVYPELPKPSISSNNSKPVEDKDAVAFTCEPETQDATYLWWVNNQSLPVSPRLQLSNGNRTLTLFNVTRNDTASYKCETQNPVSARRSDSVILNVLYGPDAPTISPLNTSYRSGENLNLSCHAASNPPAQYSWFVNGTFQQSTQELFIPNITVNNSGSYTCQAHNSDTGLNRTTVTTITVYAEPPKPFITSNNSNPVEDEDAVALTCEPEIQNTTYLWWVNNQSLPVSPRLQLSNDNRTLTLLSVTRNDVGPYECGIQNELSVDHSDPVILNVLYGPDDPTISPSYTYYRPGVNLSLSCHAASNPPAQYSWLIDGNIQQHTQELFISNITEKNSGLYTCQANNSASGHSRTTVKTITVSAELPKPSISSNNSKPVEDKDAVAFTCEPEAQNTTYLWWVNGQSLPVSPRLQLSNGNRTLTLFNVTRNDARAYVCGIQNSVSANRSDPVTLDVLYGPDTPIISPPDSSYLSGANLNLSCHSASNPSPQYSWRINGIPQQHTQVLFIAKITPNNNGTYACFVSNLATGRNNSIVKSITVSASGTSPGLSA
The experiment in a line: cell-based or functional assay.

B1: AB1L3-1/N (bispecific antibody, human IgG1, kappa, lambda, L234A L235A)
heavy: EVQLVESGGGLVQPGGSLKLSCAASGFTFNTYAMNWVRQAPGKGLEWVGRIRSKYNNYATYYADSVKDRFTISRDDSKNTAYLQMNSLKTEDTAVYYCVRHGNFGNSYVSWFAYWGQGTLVTVSSASTKGPSVFPLAPSSKSTSGGTAALGCLVKDYFPEPVTVSWNSGALTSGVHTFPAVLQSSGLYSLSSVVTVPSSSLGTQTYICNVNHKPSNTKVDKRVEPKSCDKTHTCPPCPAPEAAGGPSVFLFPPKPKDTLMISRTPEVTCVVVDVSHEDPEVKFNWYVDGVEVHNAKTKPREEQYNSTYRVVSVLTVLHQDWLNGKEYKCKVSNKALAAPIEKTISKAKGQPREPQVYTLPPSREEMTKNQVSLTCLVKGFYPSDIAVEWESNGQPENNYKTTPPVLDSDGSFFLYSKLTVDKSRWQQGNVFSCSVMHEALHNHYTQKSLSLSPG
light 1: EIVLTQSPATLSLSPGERATLSCRASQSVNSNLNWYQQKPGQAPRLLIYHGSNRATGIPARFSGSGSGTDFTLTISSLEPEDFAVYYCQQFDLRHEHNTFGQGTKVEIKRTVAAPSVFIFPPSDEQLKSGTASVVCLLNNFYPREAKVQWKVDNALQSGNSQESVTEQDSKDSTYSLSSTLTLSKADYEKHKVYACEVTHQGLSSPVTKSFNRGEC
light 2: QTVVTQEPSLTVSPGGTVTLTCRSSTGAVTTSNYANWFQQKPGQAPRGLIGGTNKRAPGTPARFSGSLLGGKAALTLSGAQPEDEAEYYCALWYKQRWVFGGGTKLTVLGQPKAAPSVTLFPPSSEELQANKATLVCLISDFYPGAVTVAWKADSSPVKAGVETTTPSKQSNNKYAASSYLSLTPEQWKSHRSYSCQVTHEGSTVEKTVAPTECS
notes: Kappa-lambda body: common heavy chain (hIgG1 L234A+L235A+P329A), kappa CEA light chain AB1, lambda CD3 light chain L3-1 (1A4); also called parental KL bispecific antibody
On to B1, for which the binding result in test [1], in test [2], in test [3] and in test [4] was “no binding (tested: 10 mcg/ml)” throughout.

B2: AB73L3-1/N (bispecific antibody, human IgG1, kappa, lambda, L234A L235A)
heavy: EVQLVESGGGLVQPGGSLKLSCAASGFTFNTYAMNWVRQAPGKGLEWVGRIRSKYNNYATYYADSVKDRFTISRDDSKNTAYLQMNSLKTEDTAVYYCVRHGNFGNSYVSWFAYWGQGTLVTVSSASTKGPSVFPLAPSSKSTSGGTAALGCLVKDYFPEPVTVSWNSGALTSGVHTFPAVLQSSGLYSLSSVVTVPSSSLGTQTYICNVNHKPSNTKVDKRVEPKSCDKTHTCPPCPAPEAAGGPSVFLFPPKPKDTLMISRTPEVTCVVVDVSHEDPEVKFNWYVDGVEVHNAKTKPREEQYNSTYRVVSVLTVLHQDWLNGKEYKCKVSNKALAAPIEKTISKAKGQPREPQVYTLPPSREEMTKNQVSLTCLVKGFYPSDIAVEWESNGQPENNYKTTPPVLDSDGSFFLYSKLTVDKSRWQQGNVFSCSVMHEALHNHYTQKSLSLSPG
light 1: EIVLTQSPATLSLSPGERATLSCRASQSVNSNLNWYQQKPGQAPRLLIYHSNNRPHGIPARFSGSGSGTDFTLTISSLEPEDFAVYYCQQFDYFREYNTFGQGTKVEIKRTVAAPSVFIFPPSDEQLKSGTASVVCLLNNFYPREAKVQWKVDNALQSGNSQESVTEQDSKDSTYSLSSTLTLSKADYEKHKVYACEVTHQGLSSPVTKSFNRGEC
light 2: QTVVTQEPSLTVSPGGTVTLTCRSSTGAVTTSNYANWFQQKPGQAPRGLIGGTNKRAPGTPARFSGSLLGGKAALTLSGAQPEDEAEYYCALWYKQRWVFGGGTKLTVLGQPKAAPSVTLFPPSSEELQANKATLVCLISDFYPGAVTVAWKADSSPVKAGVETTTPSKQSNNKYAASSYLSLTPEQWKSHRSYSCQVTHEGSTVEKTVAPTECS
notes: Kappa-lambda body, lead optimization wave 2
B2: in test [5], the “EC50 fold change compared to no shed CEA condition, sCEA 0 µg/mL (reference)” value came to 1 fold; the “EC50 fold change compared to no shed CEA condition, sCEA 0.2 µg/mL” value turned out to be 0.8 fold; the “EC50 fold change compared to no shed CEA condition, sCEA 1 µg/mL” value is 2.9 fold; the “EC50 fold change compared to no shed CEA condition, sCEA 5 µg/mL” value was found to be 7.4 fold.

B3: AB71L3-1/N (bispecific antibody, human IgG1, kappa, lambda, L234A L235A)
heavy: EVQLVESGGGLVQPGGSLKLSCAASGFTFNTYAMNWVRQAPGKGLEWVGRIRSKYNNYATYYADSVKDRFTISRDDSKNTAYLQMNSLKTEDTAVYYCVRHGNFGNSYVSWFAYWGQGTLVTVSSASTKGPSVFPLAPSSKSTSGGTAALGCLVKDYFPEPVTVSWNSGALTSGVHTFPAVLQSSGLYSLSSVVTVPSSSLGTQTYICNVNHKPSNTKVDKRVEPKSCDKTHTCPPCPAPEAAGGPSVFLFPPKPKDTLMISRTPEVTCVVVDVSHEDPEVKFNWYVDGVEVHNAKTKPREEQYNSTYRVVSVLTVLHQDWLNGKEYKCKVSNKALAAPIEKTISKAKGQPREPQVYTLPPSREEMTKNQVSLTCLVKGFYPSDIAVEWESNGQPENNYKTTPPVLDSDGSFFLYSKLTVDKSRWQQGNVFSCSVMHEALHNHYTQKSLSLSPG
light 1: EIVLTQSPATLSLSPGERATLSCRASQSVNSNLNWYQQKPGQAPRLLIYHSSNRPHGIPARFSGSGSGTDFTLTISSLEPEDFAVYYCQQFDYFKEHNTFGQGTKVEIKRTVAAPSVFIFPPSDEQLKSGTASVVCLLNNFYPREAKVQWKVDNALQSGNSQESVTEQDSKDSTYSLSSTLTLSKADYEKHKVYACEVTHQGLSSPVTKSFNRGEC
light 2: QTVVTQEPSLTVSPGGTVTLTCRSSTGAVTTSNYANWFQQKPGQAPRGLIGGTNKRAPGTPARFSGSLLGGKAALTLSGAQPEDEAEYYCALWYKQRWVFGGGTKLTVLGQPKAAPSVTLFPPSSEELQANKATLVCLISDFYPGAVTVAWKADSSPVKAGVETTTPSKQSNNKYAASSYLSLTPEQWKSHRSYSCQVTHEGSTVEKTVAPTECS
notes: as for B2
For the molecule B3, in test [5], the “EC50 fold change compared to no shed CEA condition, sCEA 0 µg/mL (reference)” value worked out at 1 fold; the “EC50 fold change compared to no shed CEA condition, sCEA 0.2 µg/mL” value was 0.6 fold; the “EC50 fold change compared to no shed CEA condition, sCEA 1 µg/mL” value was found to be 4.2 fold; the “EC50 fold change compared to no shed CEA condition, sCEA 5 µg/mL” value turned out to be 5.5 fold.
